{"source": "paper PMC7839234", "type_in_all_cases": "cell-based, Homo sapiens", "settings_in_all_cases": "sodium (lithium also drives uptake)", "key": {"[1]": {"test_system": "C[N+](C)(C)C[C@H](O)CC(=O)[O-]", "assay": "radiolabelled uptake kinetics"}, "[2]": {"test_system": "NCCC(=O)N[C@@H](Cc1cnc[nH]1)C(=O)O", "assay": "radiolabelled uptake kinetics in transfected HEK293 Flp-In cells"}, "CN(CC(=O)O)C(=N)N": {"test_system": "CN(CC(=O)O)C(=N)N", "assay": "radiolabelled uptake kinetics in transfected HEK293 Flp-In cells"}, "[3]": {"test_system": "C[N+](C)(C)[C@@H](Cc1c[nH]c(=S)[nH]1)C(=O)[O-]", "assay": "radiolabelled uptake kinetics in transfected HEK293 Flp-In cells"}}, "data": [{"substance": "SLC22A15 (Homo sapiens)", "values": [{"measurement": "Km", "setting": "[1]", "result": "99 ± 94", "unit": "µM"}, {"measurement": "Km", "setting": "[2]", "result": "510 ± 175", "unit": "µM"}, {"measurement": "Km", "setting": "CN(CC(=O)O)C(=N)N", "result": "291 ± 124", "unit": "µM"}, {"measurement": "Km", "setting": "[3]", "result": "354 ± 95", "unit": "µM"}]}]}
